# Results reported in the DeepSol protein solubility set.
# Test: soluble on expression in E. coli; label from the status in PepcDB or PDB records
row,Sequence,soluble on expression in E. coli
1,MGSSHHHHHHSSGLVPRGSHMKIAFVIRKDCSRCARIAESIIDLLPKDWEIIYDHEAAKFLNSKGLDISQISADVIITIGGDGTVLRTLQMAKGPVLGINMGGLGFLTELEVDEVGSAIFKLIKGQYRITESMKLKVEINGDRVEDCTNEAVVHTERIARIRQFKIYIDGHFLSTMKSDGIIVATPIGSSSYSSSAGGPLLLPTLKGMVISYLAPYSSRLKPVVVTSDSTVEIKIAGRDQECILILDGQREYTVRSGDTVRISRSENSARFLSFRESVYDRIRDKVIKHVVN,soluble
2,MGSSHHHHHHSSGLVPRGSHMQQLPKAIIIGVRKGGTRALLEMLNLHPAVVKASQEIHFFDNDENYGKGIEWYRKKMPFSYPQQITIEKSPAYFITEEVPERIYKMNSSIKLLIIVREPTTRAISDYTQVLEGKERKNKTYYKFEKLAIDPNTCEVNTKYKAVRTSIYTKHLERWLKYFPIEQFHVVDGDRLITEPLPELQLVEKFLNLPPRISQYNLYFNATRGFYCLRFNEIFNKCLAGSKGRIHPEVDPSVITKLRKFFHPFNQKFYQITGRTLNWP,soluble
3,MGSSHHHHHHSSGLVPRGSHMRLCHPCPWEWTFFQGNCYFMSNSQRNWHDSITACKEVGAQLVVIKSAEEQNFLQLQSSRSNRFTWMGLSDLNQEGTWQWVDGSPLLPSFKQYWNRGEPNNVGEEDCAEFSGNGWNDDKCNLAKFWICKKSAASCSRDEEQFLSPAPATPNPPPA,soluble
4,MGSSHHHHHHSSGLVPRGSHMSGSGSGSGTALTPSYLKDDDGRSLILRGFNTASSAKSAPDGMPQFTEADLAREYADMGTNFVRFLISWRSVEPAPGVYDQQYLDRVEDRVGWYAERGYKVMLDMHQDVYSGAITPEGNSGNGAGAIGNGAPAWATYMDGLPVEPQPRWELYYIQPGVMRAFDNFWNTTGKHPELVEHYAKAWRAVADRFADNDAVVAYDLMNEPFGGSLQGPAFEAGPLAAMYQRTTDAIRQVDQDTWVCVAPQAIGVNQGLPSGLTKIDDPRAGQQRIAYCPHLYPLPLDIGDGHEGLARTLTDVTIDAWRANTAHTARVLGDVPIILGEFGLDTTLPGARDYIERVYGTAREMGAGVSYWSSDPGPWGPYLPDGTQTLLVDTLNKPYPRAVAGTPTEWSSTSDRLQLTIEPDAAITAPTEIYLPEAGFPGDVHVEGADVVGWDRQSRLLTVRTPADSGNVTVTVTPAA,soluble
5,MGSSHHHHHHSSGLVPRGSPQPPADEQPEPRTRRRAYLWCKEFLPGAWRGLREDEFHISVIRGGLSNMLFQCSLPDTTATLGDEPRKVLLRLYGAILQMRSCNKEGSEQAQKENEFQGAEAMVLESVMFAILAERSLGPKLYGIFPQGRLEQFIPSRRLDTEELSLPDISAEIAEKMATFHGMKMPFNKEPKWLFGTMEKYLKEVLRIKFTEESRIKKLHKLLSYNLPLELENLRSLLESTPSPVVFCHNDCQEGNILLLEGRENSEKQKLMLIDFEYSSYNYRGFDIGNHFCEWMYDYSYEKYPFFRANIRKYPTKKQQLHFISSYLPAFQNDFENLSTEEKSIIKEEMLLEVNRFALASHFLWGLWSIVQAKISSIEFGYMDYAQARFDAYFHQKRKLGV,soluble
6,MGSSHHHHHHSSGLVPRGSVCMTEIATTSGARSVGLLSVGAYRPERVVTNDEICQHIDSSDEWIYTATGIKTRRFAADDESAASMATEACRRALSNAGLSAADIDGVIVTTNTHFLQTPPAAPMVAASLGAKGILGFDLSAGCAGFGYALGAAADMIRGGGAATMLVVGTEKLSPTIDMYDAGNCFIFADGAAAVVVGETPFQGIGPTVAGSDGEQADAIRQDIDWITFAQNPSGPRPFVRLEGPAVFRWAAFKMGDVGRRAMDAAGVRPDQIDVFVPHQANSRINELLVKNLQLRPDAVVANDIEHTGNTSAASIPLAMAELLTTGAAKPGDLALLIGYGAGLSYAAQVVRMPKG,soluble
7,MGSSHHHHHHSSGRENLYFQGHMTLTSIGPANRMARSAETHPLTWRLREDAQPVWLEEYQSKDGYAAARKALTQMAQDDIVQTVKDSGLKGRGGAGFPTGVKWGLMPKDESLNIRYLLCNADEMEPNTWKDRMLMEQLPHLLVEGMLISARALKAYRGYIFLRGEYVDAARNLNRAIDEAKAAGLLGKNILGSGFDFELFVHTGAGRYICGEETALINSLEGRRANPRSKPPFPAAVGVWGKPTCVNNVETLCNVPAIVGNGVDWYKTLARPGSEDMGTKLMGFSGKVKNPGLWELPFGVSARELFEDYAGGMRDGFQLKAWQPGGAGTGFLLPEHLDAQMFAGGIAKVGTRMGTGLAMAVDDSINMVSLLRNMEEFFARESCGWCTPCRDGLPWSVKLLRALERGEGQPGDLETLEQLVNFLGPGKTFCAHAPGAVEPLGSALKYFRAEFEAGISRQPSAAPRPATVGA,soluble
8,MGSSHHHHHHSSGRENLYFQGMTLKAGIVGIGMIGSDHLRRLANTVSGVEVVAVCDIVAGRAQAALDKYAIEAKDYNDYHDLINDKDVEVVIITASNEAHADVAVAALNANKYVFCEKPLAVTAADCQRVIEAEQKNGKRMVQIGFMRRYDKGYVQLKNIIDSGEIGQPLMVHGRHYNASTVPEYKTPQAIYETLIHEIDVMHWLLNEDYKTVKVYFPRQSSLVTTLRDPQLVVMETTSGINIVVEVFVNCQYGYDIHCDVTGEKGMAELPTVASAAVRKAAKYSTDILVDWKQRFIDAYDIEFQDFFDRLNAGLPPAGPTSWDGYLAAVTADACVKSQETGNTEIVELPSKPDFYK,soluble
9,MGSSQSTPKVQDANADAERIRKAQHSMAAAGGGSQCPLTPEQRAAASGENCGAGGACPVGADKASINPLNNELEHPNQKPAPDQPFALPTKREKSTIPKAGTETETWTYPSPQMFWNAMLKKGWRWQDDSLSKSDMENIISIHNANNEEAWREVLKWENLLHPECAEPKLKSFKGDAKNLSPRARFRNLFLGYDLPFDRHDWIVDRCGTKQVQYVIDYYDGGAVDPSSKLFTILDVRPAVNDIGNIWDRMVVAYWRFKFETLGFTPSLPIPPTEGHNVNH,not soluble
10,MGSSSSFSSSSSKLLFRQLFENESSTFTYLLADVSHPDKPALLIDPVDKTVDRDLKLIDELGLKLIYAMNTHVHADHVTGTGLLKTKLPGVKSVISKASGSKADLFLEPGDKVSIGDIYLEVRATPGHTAGCVTYVTGEGADQPQPRMAFTGDAVLIRGCGRTDFQEGSSDQLYESVHSQIFTLPKDTLIYPAHDYKGFEVSTVGEEMQHNPRLTKDKETFKTIMSNLNLSYPKMIDVAVPANMVCGLQDVPSQAN,soluble
11,MGTPVVWEGNIGNPPEHKSFPNGNNEPRQLLRLNVMFDNSIPDGSGGYKDRGGFWANVEWWHPDAERFAQLFSKGMRVVVTGRAIMDTWKDKETGDDVWALKVEANRVAILPHRVNQVTMTQSNNTGQRQNAQQNNRPERQQNSAQQPGQHTDDLSHYGNGFDDDIPVLEHHHHHH,soluble
12,MGTRDDEYDYLFKVVLIGDSGVGKSNLLSRFTRNEFNLESKSTIGVEFATRSIQVDGKTIKAQIWDTAGQERYRAITSAYYRGAVGALLVYDIAKHLTYENVERWLKELRDHADSNIVIMLVGNKSDLRHLRAVPTDEARAFAEKNGLSFIETSALDSTNVEAAFQTILTEIYRIVSQKQMSDRRENDMSPSNNVVPIHVPPTTENKPKVQCCQNI,soluble
13,MGTTVEGGRSGPRYVQVADEIVQQIRAGVLKPGDMVPSESEMVDRYGVSGGTIRKAMVEVRASGLVETRHGKGSIVKDRPPVRHRSSDRFRRSLRQGGKAAYLAESEQSGATAKVSVLYIGPMEAPADAAQRLGVPAGTQVLARRRLYFRNGTPVETASSYLPWDVVKDIPELFAENPGGGGIYARLEDHGHEFAEFVETLQARPASKAEATELALSPGAPVVHLIREARTAAGLVVEVCDTLMAADQFVFEYRIPAAD,not soluble
14,MGVDPSVKVEYKAPTVTYDQVGFMSKSTLMTHEQLISVRSAKVRQSVKITVKEQIPKSHDDKIKVSIVSPEIKSSSSSKNSSPPDARLNKDHNLEWCVILAPGQHRLLPVRYTIEHPASESLSYKFN,not soluble
15,MGVISAYAVVHERAAIIDPGTAKGAEIILDEIDRSWNVEYICPTHIHIDHGGGAARLAKALDAKIIVHPRGVKHVVNPEKLWEASKAVLGEVAEIYGKPESIDESKVIAVEDEQEFDLGGERLKVFHAPGHAPHMLVYYLTNSKVLFPADAVGMCFGGVVFPLTPPPFDADAALKTLKRLKGLKVDYVAFTHYGVVEGDWPIAKLEHHHHHH,not soluble
